# Measured values taken from patent US20240117018A1.
# Legend:
# Experiment in all cases: cell-based or functional assay
# [1] = biological target: HIV-1 Env pseudovirus 1012_11_TC21_3257 (HIV-1)
# [2] = biological target: HIV-1 Env pseudovirus 246F C1G (HIV-1)
# [3] = biological target: HIV-1 Env pseudovirus 6535.3 (HIV-1)
# [4] = biological target: HIV-1 Env pseudovirus AC10.0.29 (HIV-1)
# [5] = biological target: HIV-1 Env pseudovirus CAAN5342.A2 (HIV-1)
# [6] = biological target: HIV-1 Env pseudovirus CNE17 (HIV-1)
# [7] = biological target: HIV-1 Env pseudovirus CNE21 (HIV-1)
# [8] = biological target: HIV-1 Env pseudovirus Ce0393_C3 (HIV-1)
# [9] = biological target: HIV-1 Env pseudovirus Ce2060_G9 (HIV-1)
# [10] = biological target: HIV-1 Env pseudovirus Ce703010054_2A2 (HIV-1)
# [11] = biological target: HIV-1 Env pseudovirus Du422.1 (HIV-1)
# [12] = biological target: HIV-1 Env pseudovirus HIV-0013095-2.11 (HIV-1)
# [13] = biological target: HIV-1 Env pseudovirus Q23.17 (HIV-1)
# [14] = biological target: HIV-1 Env pseudovirus Q259.d2.17 (HIV-1)
# [15] = biological target: HIV-1 Env pseudovirus Q461.e2 (HIV-1)
# [16] = biological target: HIV-1 Env pseudovirus TRJO4551.58 (HIV-1)
# [17] = biological target: Env of HIV-1 pseudovirus 1006_11_C3_1601 (HIV-1)
# [18] = biological target: Env of HIV-1 pseudovirus 6535.3 (HIV-1)
# [19] = biological target: Env of HIV-1 pseudovirus CAP210.2.00.E8 (HIV-1)
# [20] = biological target: Env of HIV-1 pseudovirus CNE53 (HIV-1)
# [21] = biological target: Env of HIV-1 pseudovirus CNE58 (HIV-1)
# [22] = biological target: Env of HIV-1 pseudovirus Ce1086_B2 (HIV-1)
# [23] = biological target: Env of HIV-1 pseudovirus Ce703010054_2A2 (HIV-1)
# [24] = biological target: Env of HIV-1 pseudovirus Q461.e2 (HIV-1)
# [25] = biological target: Env of HIV-1 pseudovirus Q842.d12 (HIV-1)
# [26] = biological target: Env of HIV-1 pseudovirus REJO4541.67 (HIV-1)
# [27] = biological target: Env of HIV-1 pseudovirus RHPA4259.7 (HIV-1)
# [28] = biological target: Env of HIV-1 pseudovirus T250-4 (HIV-1)
# [29] = biological target: Env of HIV-1 pseudovirus ZM249M.PL1 (HIV-1)
# [30] = biological target: Env of HIV-1 pseudovirus ZM53M.PB12 (HIV-1)
# [31] = biological target: HIV-1 Env pseudovirus 0815.v3.c3 (HIV-1)
# [32] = biological target: HIV-1 Env pseudovirus 3103.v3.c10 (HIV-1)
# [33] = biological target: HIV-1 Env pseudovirus 6540.v4.c1 (HIV-1)
# [34] = biological target: HIV-1 Env pseudovirus 6811.v7.c18 (HIV-1)
# [35] = biological target: HIV-1 Env pseudovirus P0402_c2_11 (HIV-1)
# [36] = biological target: HIV-1 Env pseudovirus P1981_C5_3 (HIV-1)
substance,measurement,setting,value
N49P7.2 (antibody),IC50,[1],0.06 µg/mL
same,IC80,[1],0.285 µg/mL
same,MPI,[1],100
same,IC50,[2],0.049 µg/mL
same,IC80,[2],0.192 µg/mL
same,MPI,[2],100
same,IC50,[3],0.152 µg/mL
same,IC80,[3],0.784 µg/mL
same,MPI,[3],100
same,IC50,[4],44.2 µg/mL
same,IC80,[4],> 50 µg/mL
same,MPI,[4],53
same,IC50,[5],0.809 µg/mL
same,IC80,[5],2.81 µg/mL
same,MPI,[5],100
same,IC50,[6],0.376 µg/mL
same,IC80,[6],1.24 µg/mL
same,MPI,[6],100
same,IC50,[7],48.3 µg/mL
same,IC80,[7],> 50 µg/mL
same,MPI,[7],51
same,IC50,[8],0.137 µg/mL
same,IC80,[8],0.368 µg/mL
same,MPI,[8],100
same,IC50,[9],0.821 µg/mL
same,IC80,[9],2.81 µg/mL
same,MPI,[9],100
same,IC50,[10],0.124 µg/mL
same,IC80,[10],0.576 µg/mL
same,MPI,[10],100
same,IC50,[11],> 50 µg/mL
same,IC80,[11],> 50 µg/mL
same,MPI,[11],22
same,IC50,[12],0.183 µg/mL
same,IC80,[12],0.931 µg/mL
same,MPI,[12],97
same,IC50,[13],0.051 µg/mL
same,IC80,[13],0.2 µg/mL
same,MPI,[13],100
same,IC50,[14],38.5 µg/mL
same,IC80,[14],> 50 µg/mL
same,MPI,[14],54
same,IC50,[15],0.472 µg/mL
same,IC80,[15],2.24 µg/mL
same,MPI,[15],100
same,IC50,[16],0.21 µg/mL
same,IC80,[16],0.673 µg/mL
same,MPI,[16],100
N49P11 (antibody),IC50,[1],10.6 µg/mL
same,IC80,[1],29.3 µg/mL
same,MPI,[1],100
same,IC50,[2],8.48 µg/mL
same,IC80,[2],20.9 µg/mL
same,MPI,[2],100
same,IC50,[3],8.22 µg/mL
same,IC80,[3],17.2 µg/mL
same,MPI,[3],100
same,IC50,[4],5.52 µg/mL
same,IC80,[4],20 µg/mL
same,MPI,[4],100
same,IC50,[5],9.03 µg/mL
same,IC80,[5],20.8 µg/mL
same,MPI,[5],100
same,IC50,[6],6.68 µg/mL
same,IC80,[6],25.6 µg/mL
same,MPI,[6],100
same,IC50,[7],7.4 µg/mL
same,IC80,[7],21.9 µg/mL
same,MPI,[7],100
same,IC50,[8],1.51 µg/mL
same,IC80,[8],9.71 µg/mL
same,MPI,[8],100
same,IC50,[9],3.33 µg/mL
same,IC80,[9],13.2 µg/mL
same,MPI,[9],100
same,IC50,[10],1.42 µg/mL
same,IC80,[10],7.51 µg/mL
same,MPI,[10],100
same,IC50,[11],8.81 µg/mL
same,IC80,[11],21.2 µg/mL
same,MPI,[11],100
same,IC50,[12],5.85 µg/mL
same,IC80,[12],17.8 µg/mL
same,MPI,[12],100
same,IC50,[13],0.034 µg/mL
same,IC80,[13],0.254 µg/mL
same,MPI,[13],100
same,IC50,[14],8.42 µg/mL
same,IC80,[14],21.4 µg/mL
same,MPI,[14],100
same,IC50,[15],0.363 µg/mL
same,IC80,[15],2.15 µg/mL
same,MPI,[15],100
same,IC50,[16],0.183 µg/mL
same,IC80,[16],0.656 µg/mL
same,MPI,[16],100
N49P18.1 (antibody),IC50,[1],16.1 µg/mL
same,IC80,[1],> 50 µg/mL
same,MPI,[1],79
same,IC50,[2],3.4 µg/mL
same,IC80,[2],20.2 µg/mL
same,MPI,[2],97
same,IC50,[3],2.06 µg/mL
same,IC80,[3],11.4 µg/mL
same,MPI,[3],100
same,IC50,[4],20 µg/mL
same,IC80,[4],> 50 µg/mL
same,MPI,[4],71
same,IC50,[5],16.1 µg/mL
same,IC80,[5],49.1 µg/mL
same,MPI,[5],83
same,IC50,[6],39.7 µg/mL
same,IC80,[6],> 50 µg/mL
same,MPI,[6],56
same,IC50,[7],7.93 µg/mL
same,IC80,[7],29.2 µg/mL
same,MPI,[7],95
same,IC50,[8],10.3 µg/mL
same,IC80,[8],24.8 µg/mL
same,MPI,[8],92
same,IC50,[9],> 50 µg/mL
same,IC80,[9],> 50 µg/mL
same,MPI,[9],37
same,IC50,[10],4.15 µg/mL
same,IC80,[10],11.6 µg/mL
same,MPI,[10],98
same,IC50,[11],21.5 µg/mL
same,IC80,[11],> 50 µg/mL
same,MPI,[11],75
same,IC50,[12],> 50 µg/mL
same,IC80,[12],> 50 µg/mL
same,MPI,[12],48
same,IC50,[13],1.16 µg/mL
same,IC80,[13],6.93 µg/mL
same,MPI,[13],100
same,IC50,[14],> 50 µg/mL
same,IC80,[14],> 50 µg/mL
same,MPI,[14],37
same,IC50,[15],24.7 µg/mL
same,IC80,[15],> 50 µg/mL
same,MPI,[15],68
same,IC50,[16],4.44 µg/mL
same,IC80,[16],14.7 µg/mL
same,MPI,[16],99
PG9 (antibody),IC50,[17],0.366 µg/mL
same,IC80,[17],1.91 µg/mL
same,IC50,[18],0.176 µg/mL
same,IC80,[18],0.627 µg/mL
same,IC50,[19],0.04 µg/mL
same,IC80,[19],0.173 µg/mL
same,IC50,[20],0.131 µg/mL
same,IC80,[20],0.6 µg/mL
same,IC50,[21],0.038 µg/mL
same,IC80,[21],0.122 µg/mL
same,IC50,[22],> 50 µg/mL
same,IC80,[22],> 50 µg/mL
same,IC50,[23],0.022 µg/mL
same,IC80,[23],0.103 µg/mL
same,IC50,[24],1.48 µg/mL
same,IC80,[24],8.72 µg/mL
same,IC50,[25],0.023 µg/mL
same,IC80,[25],0.081 µg/mL
same,IC50,[26],0.012 µg/mL
same,IC80,[26],0.163 µg/mL
same,IC50,[27],22.6 µg/mL
same,IC80,[27],> 50 µg/mL
same,IC50,[28],5 ng/mL
same,IC80,[28],0.014 µg/mL
same,IC50,[29],0.166 µg/mL
same,IC80,[29],1.41 µg/mL
same,IC50,[30],0.069 µg/mL
same,IC80,[30],0.221 µg/mL
VRC01 (antibody),IC50 (Titer in TZM.bl cells),[31],0.06 µg/mL
same,IC80 (Titer in TZM.bl cells),[31],0.13 µg/mL
same,IC50 (Titer in TZM.bl cells),[1],0.12 µg/mL
same,IC80 (Titer in TZM.bl cells),[1],0.32 µg/mL
same,IC50 (Titer in TZM.bl cells),[2],> 10 µg/mL
same,IC80 (Titer in TZM.bl cells),[2],> 10 µg/mL
same,IC50 (Titer in TZM.bl cells),[32],0.93 µg/mL
same,IC80 (Titer in TZM.bl cells),[32],2.49 µg/mL
same,IC50 (Titer in TZM.bl cells),[3],0.54 µg/mL
same,IC80 (Titer in TZM.bl cells),[3],2.7 µg/mL
same,IC50 (Titer in TZM.bl cells),[33],> 50 µg/mL
same,IC80 (Titer in TZM.bl cells),[33],> 50 µg/mL
same,IC50 (Titer in TZM.bl cells),[34],0.09 µg/mL
same,IC80 (Titer in TZM.bl cells),[34],0.26 µg/mL
same,IC50 (Titer in TZM.bl cells),[4],2.2 µg/mL
same,IC80 (Titer in TZM.bl cells),[4],6.5 µg/mL
same,IC50 (Titer in TZM.bl cells),[5],0.82 µg/mL
same,IC80 (Titer in TZM.bl cells),[5],2.8 µg/mL
same,IC50 (Titer in TZM.bl cells),[8],0.62 µg/mL
same,IC80 (Titer in TZM.bl cells),[8],2.37 µg/mL
same,IC50 (Titer in TZM.bl cells),[9],0.29 µg/mL
same,IC80 (Titer in TZM.bl cells),[9],1.48 µg/mL
same,IC50 (Titer in TZM.bl cells),[10],0.53 µg/mL
same,IC80 (Titer in TZM.bl cells),[10],1.84 µg/mL
same,IC50 (Titer in TZM.bl cells),[11],> 50 µg/mL
same,IC80 (Titer in TZM.bl cells),[11],> 50 µg/mL
same,IC50 (Titer in TZM.bl cells),[12],0.11 µg/mL
same,IC80 (Titer in TZM.bl cells),[12],0.33 µg/mL
same,IC50 (Titer in TZM.bl cells),[35],0.21 µg/mL
same,IC80 (Titer in TZM.bl cells),[35],0.59 µg/mL
same,IC50 (Titer in TZM.bl cells),[36],0.46 µg/mL
same,IC80 (Titer in TZM.bl cells),[36],1.26 µg/mL
same,IC50 (Titer in TZM.bl cells),[13],0.09 µg/mL
same,IC80 (Titer in TZM.bl cells),[13],0.261 µg/mL
same,IC50 (Titer in TZM.bl cells),[14],0.17 µg/mL
same,IC80 (Titer in TZM.bl cells),[14],0.54 µg/mL
same,IC50 (Titer in TZM.bl cells),[15],0.49 µg/mL
same,IC80 (Titer in TZM.bl cells),[15],1.6 µg/mL
same,IC50 (Titer in TZM.bl cells),[16],0.08 µg/mL
same,IC80 (Titer in TZM.bl cells),[16],0.21 µg/mL
